{
  "source": "patent US20260042834A1",
  "about": "(HBM ALPHA THERAPEUTICS, published 2026)",
  "binders": {"B1": {"name": "PR302334 (antibody, human IgG1, kappa, V domains shown)", "VH": "EVKLVESGGGLVKPGGSLKLSCAASGFTFSTYAMSWVRQTPEKRLEWVASIRSGGTTYYPDSVKGRFTISRDNARNILYLQMSSLRSEDTAIYYCTRGIDWGQGTLVTVSA", "VL": "NIVMTQTPKFLLVSAGDRITITCKASQSVNNDVAWYQQKPGQSPKLLIYYASNRYTGVPDRFTGSGYGTDFTFTISTVQAEDLAVYFCQQDYSSWTFGGGTNLEIKR", "notes": "Series 9; mouse variable domains with human IgG1 wildtype Fc"}, "B2": {"name": "PR302334-26 (antibody, human IgG1, kappa, V domains shown)", "VH": "EVQLVESGGGLVQPGGSLRLSCAASGFTFSTYAMSWVRQAPGKGLEWVASIRSGGTTYYPDSVKGRFTISRDNSKNSLYLQMNSLRAEDTAVYYCTRGIDWGQGTTVTVSS", "VL": "DIVMTQSPDSLAVSLGERATINCKASQSVNNDVAWYQQKPGQPPRLLIYYASNRYTGVPDRFSGSGSGTDFTLTISSLQAEDLAVYFCQQDYSSWTFGGGTKVEIKR", "notes": "Humanized variant of PR302334"}, "B3": {"name": "PR004290 (antibody, human IgG1, kappa, V domains shown)", "VH": "EVQLVESGGVLVQPGGSLRLSCAASGFTFSSYWMTWVRQAPGKGLEWVANIKQDGSEKYYVDSVKGRFTISRDNAKNSLFLQMNSLRAEDTAVYYCARTLIFDYWGQGTLVTVSS", "VL": "DIVMTQSPLSLPVTPGEPASISCRSSQSLLHSTGYNSLEWYLQKPGQSPQLLIYLGSNRASGVPDRFSGSGSGTDFTLKISRVEAEDVGIYYCMQTLQTPITFGQGTRLEIKR", "notes": "Series 1; human IgG1 wildtype Fc; also called Hybridoma Clone 28b3"}},
  "key": {"[1]": {"molecular_target": "T1, biotinylated CRH (human and mouse, not fully specified; biotinylated, position not stated)", "T1 construct": "also called Biotin-CRH; biotin-labeled CRH", "T1 peptide": "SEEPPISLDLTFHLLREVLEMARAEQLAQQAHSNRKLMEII", "assay": "Octet BLI, biotinylated CRH on SA sensor"}, "[2]": {"molecular_target": "T1, biotinylated CRH", "assay": "Octet in-tandem, row = 1st mAb; competitor (2nd mAb) PR005660", "method": "(§1) SA sensors (Fortebio, Cat #18-5019) were hydrated in running buffer for 10 mins."}, "[3]": {"molecular_target": "T1, biotinylated CRH", "assay": "Octet in-tandem, row = 1st mAb; competitor (2nd mAb) PR006669", "method": "as §1"}, "[4]": {"molecular_target": "T1, biotinylated CRH", "assay": "Octet in-tandem, row = 1st mAb; competitor (2nd mAb) PR301777", "method": "as §1"}, "[5]": {"molecular_target": "T1, biotinylated CRH", "assay": "Octet in-tandem, row = 1st mAb; competitor (2nd mAb) PR302334", "method": "as §1"}, "[6]": {"molecular_target": "T1, biotinylated CRH", "assay": "Octet in-tandem, row = 1st mAb; competitor (2nd mAb) PR303394", "method": "as §1"}, "[7]": {"molecular_target": "T1, biotinylated CRH", "assay": "Octet in-tandem, row = 1st mAb; competitor (2nd mAb) PR302309-8", "method": "as §1"}, "[8]": {"molecular_target": "T1, biotinylated CRH", "assay": "Octet in-tandem, row = 1st mAb; competitor (2nd mAb) PR302341-34", "method": "as §1"}, "[9]": {"molecular_target": "T2, human UCN1 peptide (human, UniProt P55089 83-122, not fully specified; biotin at N- or C-terminus in the ELISA)", "T2 construct": "also called hUCN1; hUCN1 (NT Biotin)", "T2 peptide (looked up)": "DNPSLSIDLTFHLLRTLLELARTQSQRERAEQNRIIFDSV", "assay": "ELISA, biotinylated hUCN1 on streptavidin plates"}, "[10]": {"molecular_target": "T3, human UCN2 peptide (human, UniProt Q96RP3 72-109, limits assumed, not fully specified; biotin at N- or C-terminus in the ELISA)", "T3 construct": "also called hUCN2; hUCN2 (NT Biotin)", "T3 peptide (looked up)": "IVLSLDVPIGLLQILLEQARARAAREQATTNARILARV", "assay": "ELISA, biotinylated hUCN2 on streptavidin plates", "method": "(§2) Streptavidin (Thermo, Cat: 21125) was diluted in PBS with a concentration of 2 μg/mL. 100 μL of diluted streptavidin was added per well to ELISA microplates, and the plates were incubated overnight at 4° C. Plates were blocked with ELISA blocking solution (containing 2% w/v BSA, 0.05% (v/v) Tween-20, pH 7.4 PBS buffer) at 37° C. for 1 hour, and then incubated with either 1 μg/mL hUCN1 (NT Biotin), hUCN1 (CT Biotin), hUCN2 (NT Biotin), hUCN2 (CT Biotin), hUCN3 (NT Biotin), or hUCN3 (CT Biotin) for 1 hour at 37° C. […] 100 μl of TMB Substrate (Biopanda, Cat: TMB-S-003) was added, and the plates were incubated at room temperature for 15 minutes. 100 μL of ELISA stopping solution (Solarbio, Cat #: C1058) was then added to terminate the reaction, and the OD450 nm was determined by an ELISA plate reader (Molecular Devices, Spectra max 384 plus)."}, "[11]": {"molecular_target": "T4, human UCN3 peptide (human, UniProt Q969E3 120-157, not fully specified; biotin at N- or C-terminus in the ELISA)", "T4 construct": "also called hUCN3; hUCN3 (NT Biotin)", "T4 peptide (looked up)": "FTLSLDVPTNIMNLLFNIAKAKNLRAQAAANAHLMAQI", "assay": "ELISA, biotinylated hUCN3 on streptavidin plates", "method": "as §2"}, "[12]": {"molecular_target": "T5, corticotropin-releasing hormone (CRH) peptide (human and mouse (same sequence), not fully specified)", "T5 peptide": "T1 peptide", "assay": "cell-based or functional assay"}, "[13]": {"molecular_target": "T5, corticotropin-releasing hormone (CRH) …", "assay": "cell-based or functional assay"}, "[14]": {"molecular_target": "T5, corticotropin-releasing hormone (CRH) …", "assay": "cell-based or functional assay"}, "[15]": {"molecular_target": "T5, corticotropin-releasing hormone (CRH) …", "assay": "cell-based or functional assay"}, "[16]": {"molecular_target": "T5, corticotropin-releasing hormone (CRH) …", "assay": "cell-based or functional assay"}, "[17]": {"molecular_target": "T5, corticotropin-releasing hormone (CRH) …", "assay": "cell-based or functional assay"}, "[18]": {"molecular_target": "T6, CRH (NT-Biotin) (human and mouse (same sequence), not fully specified; biotin at the N-terminus)", "T6 peptide": "T1 peptide", "assay": "ELISA, biotinylated CRH on streptavidin plate", "method": "(§3) Streptavidin (Thermo, Cat: 21125) was diluted in PBS to a concentration of 2 μg/ml. 100 μl of diluted streptavidin was added per well to ELISA microplates, and the plates were incubated overnight at 4° C. […] 100 μL of 3,3′,5,5′-tetramethylbenzidine (TMB) substrate (Biopanda, Cat: TMB-S-003) was added, and the plates were incubated at room temperature for 15 minutes. 100 μL of ELISA stopping solution (Solarbio, Cat #: C1058) was added to terminate the reaction, and the optical density at 450 nm (OD450 nm) was determined by an ELISA plate reader (Molecular Devices, Spectra max 384 plus)."}, "[19]": {"molecular_target": "T7, CRH (CT-Biotin) (human and mouse (same sequence), biotin on an added C-terminal K (CRH-K-Biotin))", "T7 construct": "also called Peptide 4 (CRH-Biotin)", "T7 peptide": "T1 peptide", "assay": "ELISA, biotinylated CRH on streptavidin plate", "method": "as §3"}, "[20]": {"molecular_target": "T6, CRH (NT-Biotin)", "assay": "ELISA, biotinylated CRH on streptavidin plate", "method": "as §3"}, "[21]": {"molecular_target": "T7, CRH (CT-Biotin)", "assay": "ELISA, biotinylated CRH on streptavidin plate", "method": "as §3"}, "[22]": {"molecular_target": "T6, CRH (NT-Biotin)", "assay": "ELISA, biotinylated CRH on streptavidin plate", "method": "as §3"}, "[23]": {"molecular_target": "T7, CRH (CT-Biotin)", "assay": "ELISA, biotinylated CRH on streptavidin plate", "method": "as §3"}, "[24]": {"molecular_target": "T6, CRH (NT-Biotin)", "assay": "ELISA, biotinylated CRH on streptavidin plate", "method": "as §3"}, "[25]": {"molecular_target": "T7, CRH (CT-Biotin)", "assay": "ELISA, biotinylated CRH on streptavidin plate", "method": "as §3"}, "[26]": {"molecular_target": "T6, CRH (NT-Biotin)", "assay": "ELISA, biotinylated CRH on streptavidin plate", "method": "as §3"}, "[27]": {"molecular_target": "T7, CRH (CT-Biotin)", "assay": "ELISA, biotinylated CRH on streptavidin plate", "method": "as §3"}, "[28]": {"molecular_target": "T6, CRH (NT-Biotin)", "assay": "ELISA, biotinylated CRH on streptavidin plate", "method": "as §3"}, "[29]": {"molecular_target": "T7, CRH (CT-Biotin)", "assay": "ELISA, biotinylated CRH on streptavidin plate", "method": "as §3"}},
  "note": "Values joined by “and” are separate entries in the source; they are usually repeats but may differ in a detail not shown here. Equal entries are not always repeated. Where two headings read alike, the source gives them in different places.",
  "data": [
    {"binder": "B1", "values": [
      {"measurement": "Kd", "setting": "[1]", "result": "< 0.001", "unit": "nM"},
      {"measurement": "koff", "setting": "[1]", "result": "< 1e-07", "unit": "s⁻¹"},
      {"measurement": "kon", "setting": "[1]", "result": 669000, "unit": "M⁻¹ s⁻¹"},
      {"measurement": "% Inhibition", "setting": "[2]", "result": 92, "unit": "%"},
      {"measurement": "% Inhibition", "setting": "[3]", "result": 93, "unit": "%"},
      {"measurement": "% Inhibition", "setting": "[4]", "result": 90, "unit": "%"},
      {"measurement": "% Inhibition", "setting": "[5]", "result": 95, "unit": "%"},
      {"measurement": "% Inhibition", "setting": "[6]", "result": 89, "unit": "%"},
      {"measurement": "% Inhibition", "setting": "[7]", "result": 91, "unit": "%"},
      {"measurement": "% Inhibition", "setting": "[8]", "result": 88, "unit": "%"}
    ]},
    {"binder": "B2", "values": [
      {"measurement": "binding result", "setting": "[9]", "result": "no binding (tested: 100 nM)"},
      {"measurement": "binding result", "setting": "[10]", "result": "no binding (tested: 100 nM)"},
      {"measurement": "binding result", "setting": "[11]", "result": "no binding (tested: 100 nM)"}
    ]},
    {"binder": "B3", "values": [
      {"measurement": "hCRHR1 Luciferase Reporter Assay IC50", "setting": "[12]", "result": "3.69 nM and 4.87 nM"},
      {"measurement": "mCrhr1 Luciferase Reporter Assay IC50", "setting": "[12]", "result": "17 nM and 7.78 nM"},
      {"measurement": "hCRHR1 Luciferase Reporter Assay IC50", "setting": "[13]", "result": 3.69, "unit": "nM"},
      {"measurement": "mCrhr1 Luciferase Reporter Assay IC50", "setting": "[13]", "result": 13, "unit": "nM"},
      {"measurement": "hCRHR1 Luciferase Reporter Assay IC50", "setting": "[14]", "result": 5.41, "unit": "nM"},
      {"measurement": "mCrhr1 Luciferase Reporter Assay IC50", "setting": "[14]", "result": 18.5, "unit": "nM"},
      {"measurement": "mCrhr1 Luciferase Reporter Assay IC50", "setting": "[15]", "result": 5.24, "unit": "nM"},
      {"measurement": "hCRHR1 Luciferase Reporter Assay IC50", "setting": "[16]", "result": 1.83, "unit": "nM"},
      {"measurement": "mCrhr1 Luciferase Reporter Assay IC50", "setting": "[16]", "result": 5.24, "unit": "nM"},
      {"measurement": "hCRHR1 Luciferase Reporter Assay IC50", "setting": "[17]", "result": 1.83, "unit": "nM"},
      {"measurement": "mCrhr1 Luciferase Reporter Assay IC50", "setting": "[17]", "result": 5.24, "unit": "nM"},
      {"measurement": "EC50", "setting": "[18]", "result": 0.029, "unit": "nM"},
      {"measurement": "EC50", "setting": "[19]", "result": "0.064 nM and 0.032 nM"},
      {"measurement": "EC50", "setting": "[20]", "result": 0.029, "unit": "nM"},
      {"measurement": "EC50", "setting": "[21]", "result": 0.032, "unit": "nM"},
      {"measurement": "EC50", "setting": "[22]", "result": 0.039, "unit": "nM"},
      {"measurement": "EC50", "setting": "[23]", "result": 0.07, "unit": "nM"},
      {"measurement": "EC50", "setting": "[24]", "result": 0.039, "unit": "nM"},
      {"measurement": "EC50", "setting": "[25]", "result": 0.07, "unit": "nM"},
      {"measurement": "EC50", "setting": "[26]", "result": 0.039, "unit": "nM"},
      {"measurement": "EC50", "setting": "[27]", "result": 0.07, "unit": "nM"},
      {"measurement": "EC50", "setting": "[28]", "result": 0.039, "unit": "nM"},
      {"measurement": "EC50", "setting": "[29]", "result": 0.07, "unit": "nM"}
    ]}
  ]
}
